Assay results: US20120189639A1 (Merck Sharp & Dohme, published 2012)

How the values were obtained:
hGITR-hIgG [1] = target: T1, hGITR-hIgG (human, UniProt Q9Y5U5 26-161, limits assumed); test: BIAcore SPR; hGITR-hIgG capture antigen, mAb analyte; apparent Kd
T1 construct: not shown: human IgG part of the fusion
T1 sequence: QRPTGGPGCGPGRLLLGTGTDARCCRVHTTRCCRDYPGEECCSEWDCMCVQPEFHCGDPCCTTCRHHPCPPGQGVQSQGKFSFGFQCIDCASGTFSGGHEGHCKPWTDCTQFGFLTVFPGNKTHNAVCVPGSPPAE
Description: (§1) BIAcore determinations are performed essentially as described at Example 4 of co-pending, commonly assigned U.S. patent application Ser. No. 11/511,635 (filed 29 Aug. 2006). Briefly, binding partners are immobilized on a BIAcore CM5 sensor chip using standard amine-coupling procedure. Kinetic constants for the various interactions are determined using BIAevaluation software 3.1. The Kd is determined using the calculated dissociation and association rate constants.

[2] = target: T2, human GITR on naïve CD4+ T cells (human, UniProt Q9Y5U5 26-241); test: cell-based or functional assay
T2 sequence: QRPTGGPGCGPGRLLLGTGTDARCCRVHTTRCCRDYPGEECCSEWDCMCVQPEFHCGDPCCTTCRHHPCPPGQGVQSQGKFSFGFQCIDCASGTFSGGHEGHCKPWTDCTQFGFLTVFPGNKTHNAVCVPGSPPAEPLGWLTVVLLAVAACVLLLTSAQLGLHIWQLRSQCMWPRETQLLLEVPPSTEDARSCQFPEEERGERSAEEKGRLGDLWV

hGITR-hIgG [3] = target: T1, hGITR-hIgG; test: BIAcore SPR; hGITR-hIgG capture antigen, mAb analyte
Description: as §1

B1: 6H6 (antibody, V domains shown)
VH: QVQLQQSGAELMKPGASVKISCKATGYTFSRYWIEWIKQRPGHGLEWIGEILPGSGSSNYNEKFKDKATFTADTSSNTAYMQFSSLTSEDSAVYYCARKVYYYAMDFWGQGTSVTVSS
VL: QIVLTQSPAIMSVSLGERVTVTCTASSSVSSSYFHWYQQKPGSSPKLWIYSTSNLASGVPARFSGSGSGTSYSLTISTMEAEDAATYYCHQYHRSPRTFGGGTKLEIKR
notes: Parental rodent anti-human GITR monoclonal antibody from a hybridoma; kappa VL; also called 6H6.C3; hybridoma PTA-9892
Kd (hGITR-hIgG [1]): 1.51 nM | proliferation of naïve CD4+ T cells, mean, at 0.04 ng/mL Ab [2]: 38500 | proliferation of naïve CD4+ T cells, mean, at 0.15 ng/mL Ab [2]: 33400 | proliferation of naïve CD4+ T cells, mean, at 0.61 ng/mL Ab [2]: 30200 | proliferation of naïve CD4+ T cells, mean, at 2.4 ng/mL Ab [2]: 35600 | proliferation of naïve CD4+ T cells, mean, at 9.8 ng/mL Ab [2]: 60000 | proliferation of naïve CD4+ T cells, mean, at 39.1 ng/mL Ab [2]: 104000 | proliferation of naïve CD4+ T cells, mean, at 156 ng/mL Ab [2]: 123000 | proliferation of naïve CD4+ T cells, mean, at 625 ng/mL Ab [2]: 120000 | proliferation of naïve CD4+ T cells, mean, at 2500 ng/mL Ab [2]: 107000 | proliferation of naïve CD4+ T cells, mean, at 10000 ng/mL Ab [2]: 91900 | koff (hGITR-hIgG [3]): 0.000919 s⁻¹ | kon (hGITR-hIgG [3]): 610000 M⁻¹ s⁻¹
